Measured values reported in article PMC5436001.

Target: mMyrf N-terminal fragment (from N-terminally tagged wild-type mouse Myrf) (mouse)
Assay: co-IP

mMyrf N-terminal fragment (from N-terminally tagged wild-type mouse Myrf) (domain or fragment)
stoichiometry N: 3
